± gives the uncertainty stated by the source.
Test: self-splicing fitness, log relative to wild type (ln ratio); higher = more splicing; Tetrahymena group I intron in knt gene, E. coli kanamycin selection, DiMSum; sequences stand for … in CUCUCU…GGAGGGAAAAGUUAUCAGGCAUGCACCUGGUAGCUAGUCUUUAAACCAAUAGAUUGCAUCGGUUUAAAAGGCAAGACCGUCAAAUUGCGGGAAAGGGGUCAACAGCCGUUCAGUACCAAGUCUCAGGGGAAACUUUGAGAUGGCCUUGCAAAGGGUAUGGUAAUAAGCUGACGGACAUGGUCCUAACCACGCAGCCAAGUCCUAAGUCAACAGAUCUUCUGUUGAUAUGGAUGCAGUUCACAGACUAAAUGUCGGUCGGGGAAGAUGUAUUCUUCUCAUAAGAUAUAGUCGGACCUCUCCUUAAUGGGAGCUAGCGGAUGAAGUGAUGCAACACUGGAGCCGCUGGGAACUAAUUUGUAUGCGAAAGUAUAUUGAUUAGUUUUGGAGUACUCGUGGUCG
How it was run: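 Colonies from six replicate transformations of E. coli BL21(DE3) were pooled and amplicon-sequenced on an Illumina HiSeq 2500. The library placed an intron with all eight P1ex-region nucleotides randomised inside the knt kanamycin-resistance gene on pET-22b(+), and cells grew overnight at 37°C or 30°C on LB agar with or without 25 μg/mL kanamycin (plus 100 μg/mL carbenicillin, 50 μM IPTG, 0.2% rhamnose). Fitness is the DiMSum error-weighted combination of wild-type-normalised replicate fold changes, kanamycin versus none.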

Sequence | self-splicing fitness (ln) (30 °C) | self-splicing fitness (ln) (37 °C)
UUAUAGCAAUAUUACGGGGU | -2.93 ± 0.28 | -2.15 ± 0.31
UAAAAGCAAUAUUACGCGGU | -3.58 ± 0.29 | -2.34 ± 0.27
UAGGAGCAAUAUUACGAUAG | -4.07 ± 0.28 | -1.95 ± 0.2
ACAUAGCAAUAUUACGCUUC | -3 ± 0.29 | -1.82 ± 0.28
CACGAGCAAUAUUACGUUUU | -3.49 ± 0.15 | -2.94 ± 0.18
GGCAAGCAAUAUUACGAACG | -0.449 ± 0.068 | -0.593 ± 0.061
CUCAAGCAAUAUUACGCUGU | -3.74 ± 0.21 | -1.59 ± 0.23
UCACAGCAAUAUUACGUACA | -1.53 ± 0.076 | -0.549 ± 0.075
GACUAGCAAUAUUACGCCAG | -1.31 ± 0.22 | 
GCCCAGCAAUAUUACGCCCG | -4 ± 0.28 | -2.36 ± 0.18
GCCCAGCAAUAUUACGGAGA | -0.433 ± 0.062 | -0.0159 ± 0.072
ACGUAGCAAUAUUACGCGAC | -3.16 ± 0.21 | -1.9 ± 0.22
CGGAAGCAAUAUUACGUUGG | -1.89 ± 0.071 | -0.688 ± 0.077
GGGCAGCAAUAUUACGAUCU | -0.541 ± 0.092 | 0.124 ± 0.12
CAGCAGCAAUAUUACGUAGC | -4.02 ± 0.28 | -2.94 ± 0.26
UAUGAGCAAUAUUACGCCGA | -2.04 ± 0.34 | -1.73 ± 0.26
CUACAGCAAUAUUACGCCAA | -3.32 ± 0.17 | -3.04 ± 0.25
UUUCAGCAAUAUUACGGGAG | -0.794 ± 0.07 | -0.0774 ± 0.1
UUCUAGCAAUAUUACGGGAG | -2.34 ± 0.19 | -1.47 ± 0.19
AUAAAGCAAUAUUACGCACC | -0.896 ± 0.33 | -1.02 ± 0.29
CCUAAGCAAUAUUACGAUAA | -2.87 ± 0.2 | -3.37 ± 0.28
GUGUAGCAAUAUUACGGAAG | -1.96 ± 0.19 | -0.206 ± 0.19
GUCUAGCAAUAUUACGAAUG | -2.56 ± 0.21 | -1.43 ± 0.19
AUGUAGCAAUAUUACGAUGU | -0.753 ± 0.064 | -0.0629 ± 0.087
CGCCAGCAAUAUUACGCGUU | -2.03 ± 0.12 | -2.31 ± 0.19
ACUUAGCAAUAUUACGAGCC | -2.49 ± 0.3 | -1.26 ± 0.31

Sequence | self-splicing fitness (ln) (30 °C) | self-splicing fitness (ln) (37 °C)
CAGAAGCAAUAUUACGGUGG | -1.26 ± 0.067 | -1.12 ± 0.079
AUCGAGCAAUAUUACGAUUG | -4.49 ± 0.46 | -3.32 ± 0.26
CUAAAGCAAUAUUACGUGGC | -2.9 ± 0.12 | -2.05 ± 0.15
GCGUAGCAAUAUUACGGACA | -1.31 ± 0.17 | -0.534 ± 0.13
CAGAAGCAAUAUUACGUAGA | -3.54 ± 0.1 | -0.762 ± 0.075
AUAUAGCAAUAUUACGCCUU | -1.01 ± 0.12 | -0.431 ± 0.12
GCAUAGCAAUAUUACGAAGA | -2 ± 0.23 | -0.497 ± 0.16
GAACAGCAAUAUUACGACCU | -0.509 ± 0.099 | -0.0216 ± 0.13
UUCGAGCAAUAUUACGGUCG |  | -1.91 ± 0.36
UAGUAGCAAUAUUACGUCCA | -0.915 ± 0.37 | 
AGCCAGCAAUAUUACGUGUC | -3.17 ± 0.12 | -0.932 ± 0.083
CAUUAGCAAUAUUACGUCGC | -2.38 ± 0.32 | 
CCAAAGCAAUAUUACGGUAG | -1.99 ± 0.056 | -0.962 ± 0.066
CCAGAGCAAUAUUACGACUA | -2.95 ± 0.28 | -2.47 ± 0.38
CUAAAGCAAUAUUACGUCAG | -0.715 ± 0.064 | 0.333 ± 0.1
CGGCAGCAAUAUUACGCUUG | -2.4 ± 0.15 | -2.31 ± 0.23
ACCUAGCAAUAUUACGAGGA | -2.16 ± 0.12 | -0.9 ± 0.12
CUCCAGCAAUAUUACGUACA | -3.85 ± 0.19 | -2.08 ± 0.2
AUGGAGCAAUAUUACGUACU | -0.848 ± 0.16 | -0.491 ± 0.18
GCCAAGCAAUAUUACGUGCG | -2 ± 0.089 | -0.737 ± 0.1
GGAUAGCAAUAUUACGGCUA | -0.0854 ± 0.16 | -0.532 ± 0.14
UAUCAGCAAUAUUACGUACU | -1.57 ± 0.089 | -0.383 ± 0.1
GCUCAGCAAUAUUACGUCCC | -0.208 ± 0.24 | 0.272 ± 0.24
CUCAAGCAAUAUUACGGGUC | -4.31 ± 0.17 | -2.48 ± 0.12
UGUAAGCAAUAUUACGGCUA | 0.0076 ± 0.11 | 0.536 ± 0.13
UGUUAGCAAUAUUACGGUAG | -0.65 ± 0.22 | -0.35 ± 0.19

Sequence | self-splicing fitness (ln) (30 °C) | self-splicing fitness (ln) (37 °C)
AACGAGCAAUAUUACGACAG |  | -2.37 ± 0.28
GAUGAGCAAUAUUACGAGUA | -3.4 ± 0.43 | -1.92 ± 0.2
CGCGAGCAAUAUUACGCCUG | -2.95 ± 0.34 | -1.99 ± 0.26
UAAAAGCAAUAUUACGACAU | -1.09 ± 0.012 | -0.402 ± 0.032
AAGAAGCAAUAUUACGGCCU | -0.278 ± 0.11 | -0.574 ± 0.14
UAGUAGCAAUAUUACGAUCG | -0.771 ± 0.095 | 0.251 ± 0.12
GGAAAGCAAUAUUACGCCGC | -2.48 ± 0.41 | -1.89 ± 0.49
AGCCAGCAAUAUUACGUGAA | -3.14 ± 0.091 | -1.81 ± 0.1
AUAUAGCAAUAUUACGACGU | 0.51 ± 0.13 | 0.433 ± 0.17
AAAUAGCAAUAUUACGAGUA | -2.58 ± 0.19 | -1.09 ± 0.12
GUCCAGCAAUAUUACGGGCG | -2.53 ± 0.12 | -0.72 ± 0.099
AGUAAGCAAUAUUACGUCGA | -2.11 ± 0.21 | -1.61 ± 0.2
CUGAAGCAAUAUUACGGUAU | -3.66 ± 0.26 | -2.54 ± 0.28
ACGCAGCAAUAUUACGGUCC | -2.36 ± 0.14 | -1.01 ± 0.13
GCCUAGCAAUAUUACGGCUA | -1.2 ± 0.46 | -2.49 ± 0.39
CACGAGCAAUAUUACGUUUC | -3.42 ± 0.17 | -2.42 ± 0.22
GCUCAGCAAUAUUACGCAAU | -1.02 ± 0.078 | 0.487 ± 0.11
AACUAGCAAUAUUACGCGGU | -4.59 ± 0.29 | -0.982 ± 0.17
CACGAGCAAUAUUACGCGCA | -3.24 ± 0.18 | -2.52 ± 0.14
AAUCAGCAAUAUUACGCGAU | -2.8 ± 0.14 | -2.07 ± 0.14
AUCUAGCAAUAUUACGGGUG | -1.93 ± 0.067 | -0.57 ± 0.067
GAAAAGCAAUAUUACGACCG | -0.942 ± 0.14 | -0.33 ± 0.17
UCACAGCAAUAUUACGGGCU | -4 ± 0.18 | -3.47 ± 0.16
AUGUAGCAAUAUUACGCUAA | -1.75 ± 0.12 | -0.814 ± 0.13
GACGAGCAAUAUUACGAACC | -3.09 ± 0.18 | -0.495 ± 0.13
CCAGAGCAAUAUUACGCUUA | -3.34 ± 0.43 | 

Source: the supplement of paper PMC7877785
